We go through 3 molecules from patent publication US8084228B2, “Nogo-B receptor antagonists” (Yale University, priority 2006, dated 2011).

Data set [1] can be described thus: Lipid transferase activity, [1-14C]IPP incorporation into polyprenyl diphosphates. It counts as biochemical. The note with it: 1 μg immunoisolated protein, 20 minutes at 37° C. The method, then: NgBR and NgBR lacking the cytoplasmic domain (NgBR-CD) was immunoisolated from CHO cells expressing NgBR-HA or NgBR-CD by using anti-HA matrix beads. Lipid transferase activity was measured by determining the amount of [1-^14C]IPP (isopentenyl pyrophosphate) incorporated into butanol-extractable polyprenyl diphosphates. The activity was assayed in a 50 μL reaction containing 50 mM Hepes, pH 7.5, 2 mM MgCl2, 5 mM KF, 1 mM DTT, 0.5% CHAPS, 50 μM [1-^14C]IPP (0.15 μCi per reaction) and 50 μM allylic isoprenoid diphosphate (farnesyl diphosphate, geranylgeranyl diphosphate). The reaction was started by the addition of 1 μg of protein and allowed to proceed for 20 minutes at 37° C. Mouse liver extract (1 μg) was used as a positive control for the assay. The reaction was stopped by the addition of 0.5 mL of 1-butanol saturated with water, […] followed by the addition of 0.5 mL of 2 M KCl. An aliquot of the butanol phase was removed for scintillation counting using SafeScint scintillation (American Bioanalytic, Natick, Mass.).

The subject of data set [2] is Endothelial cells. The data set can be described thus: Am-Nogo-B-induced migration of endothelial cells, inhibition by NgBR ectodomain peptides or fusion protein. The conditions noted are these: endothelial cells (FIG. 35). It counts as cell-based. As to the method:
(§1) Cell migration was examined in modified Boyden chambers using 10 nM each of purified recombinant AP, AP fusion of Nogo-66 (AP-Nogo-66) or Am-Nogo-B. The transwell inserts (Costar transwell inserts; Corning) were coated with a solution of 0.1% gelatin (Sigma) in PBS at 4° C. overnight and then air-dried. VEGF at 50 ng/mL (1.1 nM) or recombinant Am-Nogo-B at various concentrations dissolved in medium 199 containing 0.1% BSA was added in the bottom chamber of the Boyden apparatus. HUVEC (200,000 cells) suspended in a 100 μL aliquot of medium 199 containing 0.1% BSA was added to the upper chamber. After 5 hours incubation, cells on both sides of the membrane were fixed and stained with a Diff-Quik staining kit (Baxter Healthcare, Miami, Fla.). The average number of cells from five randomly chosen high-power (×400) fields on the lower side of the membrane was counted.
Endothelial cells were incubated with vehicle (control) of one of peptides P1-P4 (200 nM each) in the presence of Am-Nogo-B (100 nM).
Similarly, treatment of endothelial cells with mFc-ecto, but not mFc, blocked Am-Nogo-B-induced cell migration (FIG. 35).

The test system of data set [3] is Endothelial cells. Kind of data set: Blocking of AP-Am-Nogo-B binding to endothelial cells. The note with it: 20 nM and 100 nM. The method, then:
To detect AP-Am-Nogo-B binding, cultures were washed with Hanks' balanced salt solution (HBSS) containing 20 mM HEPES, pH 7.5, and 1 mg/mL BSA (HBH). The plates were then incubated with AP-Am-Nogo-B in DMEM containing 20 mM Hepes, pH 7.5, and 1 mg/mL BSA for 2 hours at 4° C. The bound AP-Am-Nogo-B was detected by using the Blue Substrate kit (Vector Laboratories). The blue staining was examined by using the ODYSSEY Infrared Imaging System (Li-Cor, Lincoln, Nebr.) and confirmed by microscopy. Alternatively, the bound AP-Am-Nogo-B was extracted with Triton X-100, and AP activity was colorimetrically quantified by using p-nitrophenyl phosphate (Sigma) as substrate after heat inactivation of endogenous AP. Non-specific binding was determined by measuring binding in the presence of a 100-fold molar excess of recombinant Am-Nogo-B lacking the AP fusion protein. Specific binding was determined by subtracting the non-specific binding from total binding. For determination of apparent Kd, the binding of AP-Am-Nogo-B was measured in triplicate as described above and the Kd value was quantified by using the Scatchard plot program of GraphPad PRISM (one-site binding, linear regression) using the ratio of bound ligand to free ligand as the y axis and bound ligand (pM) as the x axis. […]

Data set [4] relates to A549 cells. Kind of data set: Tumors of A549 cells engineered to secrete Am-Nogo-B in immunodeficient mice. The format is in vivo.
Data set [5] has as its target T1, NgBR (Homo sapiens, UniProt Q96E22).
T1 sequence (Q96E22 1-293): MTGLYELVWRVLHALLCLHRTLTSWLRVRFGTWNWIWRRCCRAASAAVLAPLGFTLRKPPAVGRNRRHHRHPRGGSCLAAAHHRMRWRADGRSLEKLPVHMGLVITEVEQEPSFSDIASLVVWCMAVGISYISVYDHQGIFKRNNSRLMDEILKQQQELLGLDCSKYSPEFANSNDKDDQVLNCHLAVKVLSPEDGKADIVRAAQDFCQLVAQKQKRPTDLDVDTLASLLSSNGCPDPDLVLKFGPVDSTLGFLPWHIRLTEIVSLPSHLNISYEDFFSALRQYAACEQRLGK
Kind of data set: AP fusion protein binding to COS cells transfected with the isolated NgBR cDNA. The conditions noted are these: COS cells (FIG. 6). The arrangement: an isolated cDNA encoding NgBR is 2,636 base pairs encoding an open reading frame of 293 amino acids; expressed in transfected cells; host or cells: COS-7 (A4). As to the method: (§2) To detect AP-Am-Nogo-B binding, cultures were washed with Hanks' balanced salt solution (HBSS) containing 20 mM HEPES, pH 7.5, and 1 mg/mL BSA (HBH). The plates were then incubated with AP-Am-Nogo-B in DMEM containing 20 mM Hepes, pH 7.5, and 1 mg/mL BSA for 2 hours at 4° C. The bound AP-Am-Nogo-B was detected by using the Blue Substrate kit (Vector Laboratories). The blue staining was examined by using the ODYSSEY Infrared Imaging System (Li-Cor, Lincoln, Nebr.) and confirmed by microscopy. Alternatively, the bound AP-Am-Nogo-B was extracted with Triton X-100, and AP activity was colorimetrically quantified by using p-nitrophenyl phosphate (Sigma) as substrate after heat inactivation of endogenous AP. Non-specific binding was determined by measuring binding in the presence of a 100-fold molar excess of recombinant Am-Nogo-B lacking the AP fusion protein. Specific binding was determined by subtracting the non-specific binding from total binding. For determination of apparent Kd, the binding of AP-Am-Nogo-B was measured in triplicate as described above and the Kd value was quantified by using the Scatchard plot program of GraphPad PRISM (one-site binding, linear regression) using the ratio of bound ligand to free ligand as the y axis and bound ligand (pM) as the x axis.
For expression cloning of Am-Nogo-B receptor, pools of 5,000 arrayed clones from a human heart cDNA library (OriGene Technologies, Rockville, Md.) were transfected into COS-7 cells, and AP-Am-Nogo-B binding was assessed by using AP versus AP-Am-Nogo-B binding and detection of the AP product by near-infrared cell imaging (Li-Cor, Lincoln, Nebr.) or AP activity assays.
Single NgBR cDNA clones were isolated by sib selection and sequenced. […] The HA-tagged NgBR was immunoisolated with anti-HA immunobeads (Roche, Indianapolis, Ind.) and associated proteins analyzed by Western blotting. For the Western blots, expression of NgBR-HA was detected by using anti-HA (Roche) and NgBR (Imgenex), respectively, and beta-actin (Sigma) or Hsp90 (BD Biosciences-Pharmingen) was used to control for loading.

In data set [6] the test system is HUVEC. The data set can be described thus: HUVEC migration in modified Boyden chambers. The format is cell-based, human. The note with it: recombinant Am-Nogo-B at various concentrations, 5 hours; similar in magnitude to 1.1 nM VEGF. The method, then: The migratory response of human umbilical vein endothelial cells (HUVEC) in response to a gradient of recombinant, purified alkaline phosphatase (AP) fusion protein expressing Am-Nogo-B or a recombinant purified Am-Nogo-B was examined. HUVEC were cultured in M199 with 20% FBS and endothelial cell growth supplement (ECGS).
as §1

For data set [7], the system named is HUVEC. The data set can be described thus: Tube formation of HUVEC in 3-D collagen cultures (total network length). It counts as cell-based, human. The note with it: Am-Nogo-B 80 nM, 1-2 days. As to the method:
HUVEC were resuspended (final concentration of 1×10^6) in a mixture containing rat tail type I collagen (1.5 mg/mL) 1/10 volume of 10×M199 and 1 M Hepes, neutralized with NaOH. Droplets (0.1 mL each) of the cell/collagen mixture were placed in cell culture dishes and allowed to polymerize for 15 minutes at 37° C. Growth medium containing either vehicle or agonist was then added to each well. HUVEC were allowed to form tube-like structures for 1-2 days. To evaluate tube formation in 3-D cultures, cells were photographed using the program OPENLAB (Improvision) and total-network length, defined as an elongation of cell into tube-like structures typically seen in 3-D cultures, was quantified in five fields for each replicate per experiment by using the measurement tools provided with OPENLAB.

The test system of data set [8] is A549 cells. The data set can be described thus: Growth in culture of A549 cells engineered to secrete Am-Nogo-B. It counts as cell-based, human. The conditions noted are these: A549 cells secreting Am-Nogo-B versus vector control. An excerpt:
Human A549 cells were stably transfected with vector alone (control) or a vector encoding a secreted form of Am-Nogo-B. The production of Am-Nogo-B and the effects on A549 cell growth in culture were examined.

Data set [9] has as its target T1, NgBR. Kind of data set: AP fusion protein binding to CHO cells expressing NgBR. Details: an isolated cDNA encoding NgBR is 2,636 base pairs encoding an open reading frame of 293 amino acids; expressed in transfected cells. The note with it: increasing concentrations of purified Am-Nogo-B. The method, then: as §2
A recombinant AP-Am-Nogo-B fusion protein was used to screen a cDNA expression library from human heart (500,000 independent clones) transfected into COS or CHO cells using Lipofectamine 2000 (Invitrogen). COS-7 cells were cultured in high-glucose DMEM with 10% FBS. CHO cells were cultured in MEM-α with 5% FBS.

The test system of data set [10] is CHO cells expressing NgBR. Kind of data set: Chemotaxis of CHO cells and CHO cells expressing NgBR in a Boyden chamber. The format is cell-based. The note with it: CHO cells versus CHO cells expressing NgBR. As to the method: as §1
Using the method described above, CHO cells and CHO cells expressing NgBR were placed into a Boyden chamber and the chemotactic response to soluble Am-Nogo-B was examined.

The target of data set [11] is T2, NgBR-HA (Homo sapiens, UniProt Q96E22).
T2 construct: CHO cells stably expressing full-length NgBR with a C-terminal HA tag (CHO-NgBR-HA); expressed in transfected cells; host or cells: CHO
T2 sequence (Q96E22 1-293): T1 sequence (Q96E22 1-293)
The data set can be described thus: Immunoisolation of NgBR-HA from CHO cell extracts incubated with purified Am-Nogo-B, Western blot. It counts as binding. The conditions noted are these: lysates of vector or NgBR-HA-transfected CHO cells, 25 μg Am-Nogo-B-myc. As to the method: Single NgBR cDNA clones were isolated by sib selection and sequenced. A NgBR-HA was created in pIRESneo vector (BD, Palo Alto, Calif.), with the HA tag at the carboxy terminus. To access the physical interaction of NgBR with Am-Nogo-B, 50 μg of solubilized extracts of CHO cells expressing control vector (pIRESneo) or NgBR-HA was incubated with 25 μg of purified Am-Nogo-B or buffer for 2 hours at room temperature. The HA-tagged NgBR was immunoisolated with anti-HA immunobeads (Roche, Indianapolis, Ind.) and associated proteins analyzed by Western blotting. For the Western blots, expression of NgBR-HA was detected by using anti-HA (Roche) and NgBR (Imgenex), respectively, and beta-actin (Sigma) or Hsp90 (BD Biosciences-Pharmingen) was used to control for loading.

Where [12] appears, read: A549 tumors expressing Am-Nogo-B.

B1: NgBR: human Nogo-B receptor, 293 amino acids, SEQ ID NO:1; immunoisolated as NgBR-HA from CHO cells (protein, listed as Homo sapiens)
chain: T1 sequence (Q96E22 1-293)
modifications: HA tag
notes: immunoisolated as NgBR-HA from CHO cells
Turning to B1, in data set [1], the lipid transferase activity entry is on record as “negative”.

B2: mFc-ecto: Fc fusion of amino acids 52-116 of NgBR (SEQ ID NO:1), HA-, heptahistidine tagged fusion protein (protein)
chain: LGFTLRKPPAVGRNRRHHRHPRGGSCLAAAHHRMRWRADGRSLEKLPVHMGLVITEVEQEPSFSD
modifications: also: Fc fusion, HA tag, heptahistidine tag
B2: the “Am-Nogo-B-induced cell migration in presence of Fc protein” value in data set [2] was “blocked”. Moreover, in data set [3], the “binding of AP-Am-Nogo-B to endothelial cells in presence of Fc protein” value is on record as “blocked”.

B3: Am-Nogo-B: Residues 1-200 of Nogo-B, the amino terminus; recombinant, purified, with Myc-His tag (protein)
chain: MEDLDQSPLVSSSDSPPRPQPAFKYQFVREPEDEEEEEEEEEEDEDEDLEELEVLERKPAAGLSAAPVPTAPAAGAPLMDFGNDFVPPAPRGPLPAAPPVAPERQPSWDPSPVSSTVPAPSPLSAAAVSPSKLPEDDEPPARPPPPPPASVSPQAEPVWTPPAPAPAAPPSTPAAPKRRGSSGSVVVDLLYWRDIKKTGV
modifications: left off: small tags and cut ends
notes: Residues 1-200 of Nogo-B, the amino terminus; recombinant, purified, with Myc-His tag
B3: the “growth rate of tumors in vivo” value in data set [4] (A549 cells secreting Am-Nogo-B versus vector control, immunodeficient mice) was “increased the growth rate of tumors”. In addition, in [4] (setting [12]), the “lymphangiogenesis (LYVE-1 staining)” value was “reduced lymphangiogenesis”, the “tumor angiogenesis (PECAM-1-positive tumor cells)” value is listed as “increased angiogenesis” and the “tumor associated macrophages (F4/80 positive cells)” value is “increase tumor associated macrophages”. Further, the “binding to COS cells transfected with the isolated NgBR cDNA” value in [5] is recorded as “afforded the binding”. In addition, the “HUVEC migration, dose dependence” value in data set [6] is on record as “dose-dependently increases migration”. Also, in data set [7], the tube formation result is listed as “stimulated an increase in tube formation”. In [8], the “basal growth of A549 cells in culture” value is reported as “did not effect the basal growth”. Besides, the “displacement of the binding of 10 nM AP-Am-Nogo-B from transfected CHO cells” value in [9] was “dose-dependently displaced”. In addition, the “chemotactic response to soluble Am-Nogo-B” value in data set [10] was “transfection of NgBR was required”. For the same molecule, in data set [11], the “physical interaction with NgBR-HA (immunopurification)” value is “interacted with lysates only when the receptor was expressed”.
